T1: hENG(61-346)-hFc (human, UniProt P17813 61-346)
T1 construct: HEK 293, purified; not shown: linker and human IgG1 Fc domain
T1 sequence: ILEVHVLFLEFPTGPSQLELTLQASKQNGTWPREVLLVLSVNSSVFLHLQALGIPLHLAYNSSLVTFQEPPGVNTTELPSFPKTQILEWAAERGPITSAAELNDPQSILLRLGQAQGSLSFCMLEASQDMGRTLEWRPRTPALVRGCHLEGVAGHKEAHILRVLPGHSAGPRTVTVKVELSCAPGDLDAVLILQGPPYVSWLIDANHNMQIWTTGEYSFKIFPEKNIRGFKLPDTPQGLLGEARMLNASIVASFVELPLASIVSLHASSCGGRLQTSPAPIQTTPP

T2: hENG(26-332)-hFc (human, UniProt P17813 26-332)
T2 construct: HEK 293, purified; not shown: linker and human IgG1 Fc domain
T2 sequence: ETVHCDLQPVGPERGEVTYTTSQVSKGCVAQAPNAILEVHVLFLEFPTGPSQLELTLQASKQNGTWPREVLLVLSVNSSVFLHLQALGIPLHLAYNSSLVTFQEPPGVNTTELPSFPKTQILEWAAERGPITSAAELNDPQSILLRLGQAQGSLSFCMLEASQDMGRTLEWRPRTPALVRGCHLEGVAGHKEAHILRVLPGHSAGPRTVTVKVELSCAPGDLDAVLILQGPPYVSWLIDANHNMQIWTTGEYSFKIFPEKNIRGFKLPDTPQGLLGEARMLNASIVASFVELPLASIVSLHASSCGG

T3: hENG(133-346)-hFc (human, UniProt P17813 133-346)
T3 construct: HEK 293, purified; not shown: linker and human IgG1 Fc domain
T3 sequence: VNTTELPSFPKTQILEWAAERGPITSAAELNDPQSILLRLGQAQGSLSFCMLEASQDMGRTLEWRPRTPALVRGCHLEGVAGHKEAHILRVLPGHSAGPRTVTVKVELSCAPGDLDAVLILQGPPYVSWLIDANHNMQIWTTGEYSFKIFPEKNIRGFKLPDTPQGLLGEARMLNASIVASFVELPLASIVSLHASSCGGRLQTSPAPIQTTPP

T4: hENG(166-346)-hFc (human, UniProt P17813 166-346)
T4 construct: HEK 293, purified; not shown: linker and human IgG1 Fc domain
T4 sequence: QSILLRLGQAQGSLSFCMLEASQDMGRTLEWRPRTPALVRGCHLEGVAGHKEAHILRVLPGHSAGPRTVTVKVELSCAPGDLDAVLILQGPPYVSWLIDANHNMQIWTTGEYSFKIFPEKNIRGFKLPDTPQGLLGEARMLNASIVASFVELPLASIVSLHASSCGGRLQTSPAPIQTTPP

T5: hENG(360-581)-hFc (human, UniProt P17813 360-581)
T5 construct: HEK 293, purified; not shown: linker and human IgG1 Fc domain
T5 sequence: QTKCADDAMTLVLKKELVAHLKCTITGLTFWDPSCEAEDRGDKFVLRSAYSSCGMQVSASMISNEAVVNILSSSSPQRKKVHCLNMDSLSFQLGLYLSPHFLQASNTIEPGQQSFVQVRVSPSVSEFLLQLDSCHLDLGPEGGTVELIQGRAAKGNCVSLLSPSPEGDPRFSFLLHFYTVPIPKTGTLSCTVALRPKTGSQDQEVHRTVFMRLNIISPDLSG

T6: hENG(438-586)-hFc (human, UniProt P17813 438-586)
T6 construct: HEK 293, purified; not shown: linker and human IgG1 Fc domain
T6 sequence: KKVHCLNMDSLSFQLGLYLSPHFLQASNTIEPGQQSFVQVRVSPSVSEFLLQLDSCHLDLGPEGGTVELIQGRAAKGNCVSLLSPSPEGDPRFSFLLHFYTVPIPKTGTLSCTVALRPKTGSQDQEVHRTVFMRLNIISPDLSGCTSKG

T7: hENG(360-586)-hFc (human, UniProt P17813 360-586)
T7 construct: HEK 293, purified; not shown: linker and human IgG1 Fc domain
T7 sequence: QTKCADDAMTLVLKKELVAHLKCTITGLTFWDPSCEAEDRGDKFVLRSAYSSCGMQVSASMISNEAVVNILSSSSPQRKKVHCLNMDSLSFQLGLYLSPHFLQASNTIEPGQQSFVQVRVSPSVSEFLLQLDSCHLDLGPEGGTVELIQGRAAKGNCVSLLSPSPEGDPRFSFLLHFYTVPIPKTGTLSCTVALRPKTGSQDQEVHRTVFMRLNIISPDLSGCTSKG

T8: hENG(26-257)-hFc (human, UniProt P17813 26-257)
T8 construct: HEK 293, purified; not shown: linker and human IgG1 Fc domain
T8 sequence: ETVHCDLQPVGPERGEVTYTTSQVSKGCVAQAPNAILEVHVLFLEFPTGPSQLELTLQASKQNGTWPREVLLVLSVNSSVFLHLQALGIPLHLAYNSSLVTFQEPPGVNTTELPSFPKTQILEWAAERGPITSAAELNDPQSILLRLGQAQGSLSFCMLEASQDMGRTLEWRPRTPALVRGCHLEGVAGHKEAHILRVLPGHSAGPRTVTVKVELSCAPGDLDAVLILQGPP


Legend:
hENG(61-346)-hFc = target: T1, hENG(61-346)-hFc; assay: SPR, captured hENG-hFc, soluble BMP10; '-' = Binding undetectable
Experimental: (§1) SPR methodology was used to screen these hENG-hFc protein variants for high-affinity binding to human BMP9 and BMP10. In these experiments, captured hENG-hFc proteins were exposed to soluble BMP9 or BMP10 at 100 nM each.

hENG(26-332)-hFc [1] = target: T2, hENG(26-332)-hFc; assay: as above
Experimental: as §1

hENG(133-346)-hFc = target: T3, hENG(133-346)-hFc; assay: as above
Experimental: as §1

hENG(166-346)-hFc [2] = target: T4, hENG(166-346)-hFc; assay: as above
Experimental: as §1

hENG(360-581)-hFc = target: T5, hENG(360-581)-hFc; assay: as above
Experimental: as §1

hENG(438-586)-hFc = target: T6, hENG(438-586)-hFc; assay: as above
Experimental: as §1

hENG(360-586)-hFc = target: T7, hENG(360-586)-hFc; assay: as above
Experimental: as §1

hENG(26-257)-hFc [3] = target: T8, hENG(26-257)-hFc; assay: as above
Experimental: as §1

hENG(26-332)-hFc [4] = target: T2, hENG(26-332)-hFc; assay: SPR, captured hENG-hFc, soluble BMP9; '-' = Binding undetectable
Experimental: as §1

hENG(166-346)-hFc [5] = target: T4, hENG(166-346)-hFc; assay: as above
Experimental: as §1

hENG(26-257)-hFc [6] = target: T8, hENG(26-257)-hFc; assay: as above
Experimental: as §1

| binding result (hENG(61-346)-hFc) | binding result (hENG(26-332)-hFc [1]) | binding result (hENG(133-346)-hFc) | binding result (hENG(166-346)-hFc [2]) | binding result (hENG(360-581)-hFc) | binding result (hENG(438-586)-hFc) | binding result (hENG(360-586)-hFc) | binding result (hENG(26-257)-hFc [3]) | binding result (hENG(26-332)-hFc [4]) | binding result (hENG(166-346)-hFc [5]) | binding result (hENG(26-257)-hFc [6]) | Binder |
| --- | --- | --- | --- | --- | --- | --- | --- | --- | --- | --- | --- |
| no binding (tested: 100 nM) | no binding (tested: 100 nM) | no binding (tested: 100 nM) | no binding (tested: 100 nM) | no binding (tested: 100 nM) | no binding (tested: 100 nM) | no binding (tested: 100 nM) | no binding (tested: 100 nM) | – | – | – | BMP10 (ligand, also called hBMP-10; hBMP10) NAKGNYCKRTPLYIDFKEIGWDSWIIAPPGYEAYECRGVCNYPLAEHLTPTKHAIIQALVHLKNSQKASKACCVPTKLEPISILYLDKGVVTYKFKYEGMAVSECGCR |
| – | – | – | – | – | – | – | – | no binding (tested: 100 nM) | no binding (tested: 100 nM) | no binding (tested: 100 nM) | BMP9 (ligand, human, UniProt Q9UK05 320-429, looked up, also called hBMP-9; hBMP9) SAGAGSHCQKTSLRVNFEDIGWDSWIIAPKEYEAYECKGGCFFPLADDVTPTKHAIVQTLVHLKFPTKVGKACCVPTKLSPISVLYKDDMGVPTLKYHYEGMSVAECGCR |

— patent US20200087367A1 (ACCELERON PHARMA, published 2020)
